Measured values from patent publication US20240252606A1 (CHANGCHUN BCHT BIOTECHNOLOGY, published 2024).

Biological target: the molecule itself
Experiment: native gel electrophoresis, self-assembly

B1: cysteine-modified norovirus capsid P protein PP-3C (other)
chain: MGKPFSVPILTVEEMTNSRFPIPLEKLFTGPSSAFVVQPQNGRCTTDGVLLGTTQLSPVNICTFRGDVTHIAGCQNYTMNLASQNWNNYDPTEEIPAPLGTPDFVGRIQGVLTQTTRRDGSTRGHKATVSTGSVHFTPKLGSVQFSTDTCNDFETGQNTRFTPVGVVQDCSTTHQNEPQQWVLPDYSGRDSHNVHLAPAVAPTFPGEQLLFFRSTMPGCSGYPNMNLDCLLPQEWVQHFYQESAPAQSDVALLRFVNPDTGRVLFECKLHKSGYVTVAHTGQHDLVIPPNGYFRFDSWVNQFYTLAPMGNGAGRRRAL
notes: self-assembles into dodecamers and tetracosamers
- binding result: binds

B2: lysine-modified norovirus capsid P protein PP-3K (other)
chain: MGKPFSVPILTVEEMTNSRFPIPLEKLFTGPSSAFVVQPQNGRCTTDGVLLGTTQLSPVNICTFRGDVTHIAGKTQNYTMNLASQNWNNYDPTEEIPAPLGTPDFVGRIQGVLTQTTRRDGSTRGHKATVSTGSVHFTPKLGSVQFSTDTSKNDFETGQNTRFTPVGVVQDGKSTTHQNEPQQWVLPDYSGRDSHNVHLAPAVAPTFPGEQLLFFRSTMPGCSGYPNMNLDCLLPQEWVQHFYQESAPAQSDVALLRFVNPDTGRVLFECKLHKSGYVTVAHTGQHDLVIPPNGYFRFDSWVNQFYTLAPMGNGAGRRRAL
notes: as for B1
- binding result: binds
